T1: G9a and GLP (Homo sapiens, UniProt Q96KQ7+Q9H9B1)
T1 sequence (Q96KQ7 2-1210 limits assumed): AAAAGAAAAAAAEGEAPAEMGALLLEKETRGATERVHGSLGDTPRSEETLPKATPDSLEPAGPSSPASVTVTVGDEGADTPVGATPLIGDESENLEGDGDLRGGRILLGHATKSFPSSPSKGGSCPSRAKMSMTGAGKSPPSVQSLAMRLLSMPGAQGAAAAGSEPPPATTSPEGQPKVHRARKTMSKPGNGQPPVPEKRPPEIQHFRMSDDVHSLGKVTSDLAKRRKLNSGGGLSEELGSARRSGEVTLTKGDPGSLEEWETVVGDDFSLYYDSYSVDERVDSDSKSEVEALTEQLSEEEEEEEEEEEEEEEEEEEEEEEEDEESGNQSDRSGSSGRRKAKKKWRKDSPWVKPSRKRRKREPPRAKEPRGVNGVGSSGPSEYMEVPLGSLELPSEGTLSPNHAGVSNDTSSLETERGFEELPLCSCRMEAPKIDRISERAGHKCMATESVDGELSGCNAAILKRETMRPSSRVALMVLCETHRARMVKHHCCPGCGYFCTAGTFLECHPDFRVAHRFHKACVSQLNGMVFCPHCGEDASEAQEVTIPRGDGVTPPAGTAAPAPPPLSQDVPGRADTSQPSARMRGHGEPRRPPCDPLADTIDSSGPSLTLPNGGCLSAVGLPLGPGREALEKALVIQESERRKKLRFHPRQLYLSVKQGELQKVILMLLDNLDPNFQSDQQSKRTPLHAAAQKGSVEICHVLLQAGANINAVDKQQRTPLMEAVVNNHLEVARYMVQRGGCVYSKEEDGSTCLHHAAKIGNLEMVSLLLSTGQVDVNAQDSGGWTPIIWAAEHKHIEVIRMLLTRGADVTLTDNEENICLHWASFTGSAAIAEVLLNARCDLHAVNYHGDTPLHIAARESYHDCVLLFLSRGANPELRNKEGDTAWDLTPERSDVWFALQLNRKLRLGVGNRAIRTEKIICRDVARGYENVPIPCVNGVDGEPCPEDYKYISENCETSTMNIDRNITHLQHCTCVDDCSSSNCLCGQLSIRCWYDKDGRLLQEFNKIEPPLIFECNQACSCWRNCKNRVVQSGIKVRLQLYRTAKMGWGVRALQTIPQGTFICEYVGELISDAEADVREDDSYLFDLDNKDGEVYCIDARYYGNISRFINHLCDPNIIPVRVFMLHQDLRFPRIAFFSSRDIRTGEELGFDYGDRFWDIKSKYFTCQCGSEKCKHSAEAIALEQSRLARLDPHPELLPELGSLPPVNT
T1 sequence (Q9H9B1 2-1298 limits assumed): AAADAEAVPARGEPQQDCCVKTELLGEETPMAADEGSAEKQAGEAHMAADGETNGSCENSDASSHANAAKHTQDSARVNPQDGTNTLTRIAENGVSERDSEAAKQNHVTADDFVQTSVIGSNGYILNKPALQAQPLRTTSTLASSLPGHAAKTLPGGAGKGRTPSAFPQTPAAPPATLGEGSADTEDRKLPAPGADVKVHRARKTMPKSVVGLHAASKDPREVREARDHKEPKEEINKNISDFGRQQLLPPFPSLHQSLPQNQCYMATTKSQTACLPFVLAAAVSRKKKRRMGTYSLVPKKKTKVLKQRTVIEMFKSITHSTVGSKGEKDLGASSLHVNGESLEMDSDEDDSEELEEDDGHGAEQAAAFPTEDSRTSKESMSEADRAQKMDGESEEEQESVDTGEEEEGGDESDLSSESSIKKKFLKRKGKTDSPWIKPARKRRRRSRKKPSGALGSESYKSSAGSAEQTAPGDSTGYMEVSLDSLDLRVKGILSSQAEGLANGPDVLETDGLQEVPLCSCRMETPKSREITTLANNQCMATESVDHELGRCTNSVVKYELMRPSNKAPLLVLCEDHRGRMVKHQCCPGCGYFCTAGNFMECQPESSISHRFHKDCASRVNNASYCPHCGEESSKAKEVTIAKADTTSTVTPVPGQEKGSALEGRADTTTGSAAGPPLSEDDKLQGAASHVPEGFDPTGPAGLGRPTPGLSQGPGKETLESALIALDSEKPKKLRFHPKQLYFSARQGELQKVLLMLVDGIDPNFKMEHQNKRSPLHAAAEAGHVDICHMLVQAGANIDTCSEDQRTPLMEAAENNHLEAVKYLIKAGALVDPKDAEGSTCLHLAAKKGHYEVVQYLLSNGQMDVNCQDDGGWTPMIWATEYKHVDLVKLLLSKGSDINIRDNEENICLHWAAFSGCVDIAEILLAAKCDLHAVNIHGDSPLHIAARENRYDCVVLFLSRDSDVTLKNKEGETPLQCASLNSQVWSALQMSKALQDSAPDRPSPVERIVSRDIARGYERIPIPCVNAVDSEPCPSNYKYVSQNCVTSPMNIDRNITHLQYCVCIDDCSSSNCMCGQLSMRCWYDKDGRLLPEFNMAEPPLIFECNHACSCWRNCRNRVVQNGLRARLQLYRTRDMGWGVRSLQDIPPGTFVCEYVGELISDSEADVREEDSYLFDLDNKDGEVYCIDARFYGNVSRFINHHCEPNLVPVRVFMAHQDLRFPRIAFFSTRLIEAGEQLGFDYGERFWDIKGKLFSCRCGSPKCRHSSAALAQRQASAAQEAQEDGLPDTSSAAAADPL


Legend:
[1] = system: 3×MBT domain of L3MBTL1; assay: Triple SILAC pull-down, 3xMBT/3xMBTD355N ratio (cytoplasmic, nuclear and chromatin fractions of 293T cells); type: binding, human; details: SILAC ratio 3xMBT vs 3xMBTD355N pull-down, 293T cells, all values in log base 2; for 3xMBT/D355N UNC Heavy: experiment with UNC0638 in heavy SILAC media; for 3xMBT/D355N UNC Light: experiment with UNC0638 in light SILAC media;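 as to all read-outs here: proteins quantified with MaxQuant, requiring at least two unique peptides and quantification in both label directions, normalized to the mean of proteins from a digested loading control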
[2] = target: T1, G9a and GLP; assay: Triple SILAC pull-down after UNC0638 treatment of 293T cells, DMSO/UNC0638 ratio of protein captured by 3×MBT; type: cell-based; set-up: endogenous in cells; host or cells: HEK 293T; details: all values in log base 2; for Relative to UNC0638 UNC Heavy / Relative to UNC0638 UNC Light: SILAC ratio DMSO relative to UNC0638, pull-down with 3xMBT; for Relative to UNC0638 UNC Heavy: UNC0638 in heavy SILAC media; for Relative to UNC0638 UNC Light: UNC0638 in light SILAC media; for Relative to UNC0638 Average: average of UNC Light and UNC Heavy experiments;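 as to all read-outs here: mass spectrometry (Q-Exactive) SILAC quantitation, DMSO/UNC0638 ratio computed after subtracting 3×MBTD355N mutant pull-down background, only proteins with at least twofold 3×MBT over mutant signal considered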

Relative to UNC0638 UNC Heavy [2] [log base 2]	Relative to UNC0638 UNC Light [2] [log base 2]	Relative to UNC0638 Average [2] [log base 2]	Molecule	3xMBT/D355N UNC Heavy [1] [log base 2]	3xMBT/D355N UNC Light [1] [log base 2]
0.01	0.19	0.10	HNRNPM (protein, UniProt P52272 2-730, looked up) Heterogeneous nuclear …: AAGVEAAAEVAATEIKMEEESGAPGVPSGNGAPGPKGEGERPAQNEKRKEKNIKRGGNRFEPYANPTKRYRAFITNIPFDVKWQSLKDLVKEKVGEVTYVELLMDAEGKSRGCAVVEFKMEESMKKAAEVLNKHSLSGRPLKVKEDPDGEHARRAMQKVMATTGGMGMGPGGPGMITIPPSILNNPNIPNEIIHALQAGRLGSTVFVANLDYKVGWKKLKEVFSMAGVVVRADILEDKDGKSRGIGTVTFEQSIEAVQAISMFNGQLLFDRPMHVKMDERALPKGDFFPPERPQQLPHGLGGIGMGLGPGGQPIDANHLNKGIGMGNIGPAGMGMEGIGFGINKMGGMEGPFGGGMENMGRFGSGMNMGRINEILSNALKRGEIIAKQGGGGGGGSVPGIERMGPGIDRLGGAGMERMGAGLGHGMDRVGSEIERMGLVMDRMGSVERMGSGIERMGPLGLDHMASSIERMGQTMERIGSGVERMGAGMGFGLERMAAPIDRVGQTIERMGSGVERMGPAIERMGLSMERMVPAGMGAGLERMGPVMDRMATGLERMGANNLERMGLERMGANSLERMGLERMGANSLERMGPAMGPALGAGIERMGLAMGGGGGASFDRAIEMERGNFGGSFAGSFGGAGGHAPGVARKACQIFVRNLPFDFTWKMLKDKFNECGHVLYADIKMENGKSKGCGVVKFESPEVAERACRMMNGMKLSGREIDVRIDRNA	3.18	2.44
0.10	0.10	0.10	DEK (protein, UniProt P35659 2-375, looked up) Protein DEK: SASAPAAEGEGTPTQPASEKEPEMPGPREESEEEEDEDDEEEEEEEKEKSLIVEGKREKKKVERLTMQVSSLQREPFTIAQGKGQKLCEIERIHFFLSKKKTDELRNLHKLLYNRPGTVSSLKKNVGQFSGFPFEKGSVQYKKKEEMLKKFRNAMLKSICEVLDLERSGVNSELVKRILNFLMHPKPSGKPLPKSKKTCSKGSKKERNSSGMARKAKRTKCPEILSDESSSDEDEKKNKEESSDDEDKESEEEPPKKTAKREKPKQKATSKSKKSVKSANVKKADSSTTKKNQNSSKKESESEDSSDDEPLIKKLKKPPTDEELKETIKKLLASANLEEVTMKQICKKVYENYPTYDLTERKDFIKTTVKELIS	2.38	2.01
0.17	0.04	0.10	PRDX1 (protein, UniProt Q06830 2-199, looked up) Peroxiredoxin-1: SSGNAKIGHPAPNFKATAVMPDGQFKDISLSDYKGKYVVFFFYPLDFTFVCPTEIIAFSDRAEEFKKLNCQVIGASVDSHFCHLAWVNTPKKQGGLGPMNIPLVSDPKRTIAQDYGVLKADEGISFRGLFIIDDKGILRQITVNDLPVGRSVDETLRLVQAFQFTDKHGEVCPAGWKPGSDTIKPDVQKSKEYFSKQK	1.65	1.98
0.28	−0.08	0.10	HPRT1 (protein, UniProt P00492 2-218, looked up) Hypoxanthine-guanine …: ATRSPGVVISDDEPGYDLDLFCIPNHYAEDLERVFIPHGLIMDRTERLARDVMKEMGGHHIVALCVLKGGYKFFADLLDYIKALNRNSDRSIPMTVDFIRLKSYCNDQSTGDIKVIGGDDLSTLTGKNVLIVEDIIDTGKTMQTLLSLVRQYNPKMVKVASLLVKRTPRSVGYKPDFVGFEIPDKFVVGYALDYNEYFRDLNHVCVISETGKAKYKA	2.51	1.19
